The labels stand for the following.
B1: PR70 (130–504) (domain or fragment, human, UniProt Q9Y5P8 130-504, looked up)
chain: FPRGRPQDSVNVDAVISKIESTFARFPHERATMDDMGLVAKACGCPLYWKGPLFYGAGGERTGSVSVHKFVAMWRKILQNCHDDAAKFVHLLMSPGCNYLVQEDFVPFLQDVVNTHPGLSFLKEASEFHSRYITTVIQRIFYAVNRSWSGRITCAELRRSSFLQNVALLEEEADINQLTEFFSYEHFYVIYCKFWELDTDHDLLIDADDLARHNDHALSTKMIDRIFSGAVTRGRKVQKEGKISYADFVWFLISEEDKKTPTSIEYWFRCMDLDGDGALSMFELEYFYEEQCRRLDSMAIEALPFQDCLCQMLDLVKPRTEGKITLQDLKRCKLANVFFDTFFNIEKYLDHEQKEQISLLRDGDSGGPELSDWEK
notes: PR70 (B''β), regulatory B'' subunit of PP2A, human, product of PPP2R3B; residues 130–504; source: E. coli BL21(DE3), purified (IMAC, TEV cleavage, gel filtration); not shown: His tag, N-terminal, cleaved
B2: PR70 (105–575) (domain or fragment, human, UniProt Q9Y5P8 105-575, looked up)
chain: GTRVVQTRKEEPLPPATSQSIPTFYFPRGRPQDSVNVDAVISKIESTFARFPHERATMDDMGLVAKACGCPLYWKGPLFYGAGGERTGSVSVHKFVAMWRKILQNCHDDAAKFVHLLMSPGCNYLVQEDFVPFLQDVVNTHPGLSFLKEASEFHSRYITTVIQRIFYAVNRSWSGRITCAELRRSSFLQNVALLEEEADINQLTEFFSYEHFYVIYCKFWELDTDHDLLIDADDLARHNDHALSTKMIDRIFSGAVTRGRKVQKEGKISYADFVWFLISEEDKKTPTSIEYWFRCMDLDGDGALSMFELEYFYEEQCRRLDSMAIEALPFQDCLCQMLDLVKPRTEGKITLQDLKRCKLANVFFDTFFNIEKYLDHEQKEQISLLRDGDSGGPELSDWEKYAAEEYDILVAEETAGEPWEDGFEAELSPVEQKLSALRSPLAQRPFFEAPSPLGAVDLYEYACGDEDLEPL
notes: PR70 (B''β), regulatory B'' subunit of PP2A, human, product of PPP2R3B; source: E. coli BL21(DE3), purified (IMAC, TEV cleavage, gel filtration); not shown: His tag, N-terminal, cleaved
B3: PR70 (130–555) (domain or fragment, human, UniProt Q9Y5P8 130-555, looked up)
chain: FPRGRPQDSVNVDAVISKIESTFARFPHERATMDDMGLVAKACGCPLYWKGPLFYGAGGERTGSVSVHKFVAMWRKILQNCHDDAAKFVHLLMSPGCNYLVQEDFVPFLQDVVNTHPGLSFLKEASEFHSRYITTVIQRIFYAVNRSWSGRITCAELRRSSFLQNVALLEEEADINQLTEFFSYEHFYVIYCKFWELDTDHDLLIDADDLARHNDHALSTKMIDRIFSGAVTRGRKVQKEGKISYADFVWFLISEEDKKTPTSIEYWFRCMDLDGDGALSMFELEYFYEEQCRRLDSMAIEALPFQDCLCQMLDLVKPRTEGKITLQDLKRCKLANVFFDTFFNIEKYLDHEQKEQISLLRDGDSGGPELSDWEKYAAEEYDILVAEETAGEPWEDGFEAELSPVEQKLSALRSPLAQRPFFEAPS
notes: PR70 (B''β), regulatory B'' subunit of PP2A, human, product of PPP2R3B; residues 130–555; source: E. coli BL21(DE3), purified (IMAC, TEV cleavage, gel filtration); not shown: His tag, N-terminal, cleaved
B4: PR72 (24–529) (domain or fragment, UniProt Q06190-2 24-529, looked up)
chain: GCDFVLPSRFKKRLKSFQQTQIQNKPEKKPGTPLPPPATSPSSPRPLSPVPHVNNVVNAPLSINIPRFYFPEGLPDTCSNHEQTLSRIETAFMDIEEQKADIYEMGKIAKVCGCPLYWKAPMFRAAGGEKTGFVTAQSFIAMWRKLLNNHHDDASKFICLLAKPNCSSLEQEDFIPLLQDVVDTHPGLTFLKDAPEFHSRYITTVIQRIFYTVNRSWSGKITSTEIRKSNFLQTLALLEEEEDINQITDYFSYEHFYVIYCKFWELDTDHDLYISQADLSRYNDQASSSRIIERIFSGAVTRGKTIQKEGRMSYADFVWFLISEEDKRNPTSIEYWFRCMDVDGDGVLSMYELEYFYEEQCERMEAMGIEPLPFHDLLCQMLDLVKPAVDGKITLRDLKRCRMAHIFYDTFFNLEKYLDHEQRDPFAVQKDVENDGPEPSDWDRFAAEEYETLVAEESAQAQFQEGFEDYETDEPASPSEFGNKSNKILSASLPEKCGKLQSVDEE
notes: PR72 (B''α2), regulatory B'' subunit of PP2A, product of PPP2R3A; residues 24–529; the end at 529 fits the PR72 isoform of 529 residues, not PR130; also called PR72 subunit (residue 24–529); B''α2; source: E. coli BL21(DE3), purified (IMAC, TEV cleavage, gel filtration); not shown: His tag, N-terminal, cleaved
B5: PR70 (25–575) (domain or fragment, human, UniProt Q9Y5P8 25-575, looked up)
chain: EASTQRMLQDCLRRIKAPGRDQPTPGDGEQPGAWPTAPLAAPRPSGLEPPGTPGPGPALPLGAASSPRNAPHVRGTRRSAGTRVVQTRKEEPLPPATSQSIPTFYFPRGRPQDSVNVDAVISKIESTFARFPHERATMDDMGLVAKACGCPLYWKGPLFYGAGGERTGSVSVHKFVAMWRKILQNCHDDAAKFVHLLMSPGCNYLVQEDFVPFLQDVVNTHPGLSFLKEASEFHSRYITTVIQRIFYAVNRSWSGRITCAELRRSSFLQNVALLEEEADINQLTEFFSYEHFYVIYCKFWELDTDHDLLIDADDLARHNDHALSTKMIDRIFSGAVTRGRKVQKEGKISYADFVWFLISEEDKKTPTSIEYWFRCMDLDGDGALSMFELEYFYEEQCRRLDSMAIEALPFQDCLCQMLDLVKPRTEGKITLQDLKRCKLANVFFDTFFNIEKYLDHEQKEQISLLRDGDSGGPELSDWEKYAAEEYDILVAEETAGEPWEDGFEAELSPVEQKLSALRSPLAQRPFFEAPSPLGAVDLYEYACGDEDLEPL
notes: PR70 (B''β), regulatory B'' subunit of PP2A, human, product of PPP2R3B; also called B''/PR70; source: E. coli BL21(DE3), purified (IMAC, TEV cleavage, gel filtration); not shown: His tag, N-terminal, cleaved
B6: PR70 core fragment (residues 130–483) (domain or fragment, human, UniProt Q9Y5P8 130-483, looked up)
chain: FPRGRPQDSVNVDAVISKIESTFARFPHERATMDDMGLVAKACGCPLYWKGPLFYGAGGERTGSVSVHKFVAMWRKILQNCHDDAAKFVHLLMSPGCNYLVQEDFVPFLQDVVNTHPGLSFLKEASEFHSRYITTVIQRIFYAVNRSWSGRITCAELRRSSFLQNVALLEEEADINQLTEFFSYEHFYVIYCKFWELDTDHDLLIDADDLARHNDHALSTKMIDRIFSGAVTRGRKVQKEGKISYADFVWFLISEEDKKTPTSIEYWFRCMDLDGDGALSMFELEYFYEEQCRRLDSMAIEALPFQDCLCQMLDLVKPRTEGKITLQDLKRCKLANVFFDTFFNIEKYLDHEQK
notes: PR70 (B''β), regulatory B'' subunit of PP2A, human, product of PPP2R3B; The crystal (PDB 4MEW) was of the selenomethionine-labelled protein alone; the model holds residues 134–481; also called PR70 core domain; source: E. coli BL21(DE3), purified (IMAC, TEV cleavage, gel filtration); not shown: His tag, N-terminal, cleaved

A value given as a limit tells only on which side of the number the result lay.

Assay in all cases: ITC; B''-constructs at 20–40 µM in the cell titrated with 200–300 µM Aα or Aβ constructs; 15°C; 20 mM Tris pH 7.5, 200 mM NaCl, 2 mM CaCl2; 1:1 binding model
In general terms: In ITC the heat of successive injections is recorded.

In the experiment “PR70 (25–575)” the target is B5.
The target in the experiment “PR70 (105–575)” is B2.
For the next experiment, the target named is T1, A α (HEAT1–15) (UniProt P30153 1-589).
T1 construct: PP2A scaffolding subunit A, α isoform, product of PPP2R1A; HEAT repeats 1–15; calculated molecular weight 65.3 kD; also called full length A-subunit; scaffolding A subunit; source: E. coli BL21(DE3), purified (IMAC, TEV cleavage, gel filtration); not shown: His tag, N-terminal, cleaved
T1 sequence (P30153 whole entry, canonical isoform): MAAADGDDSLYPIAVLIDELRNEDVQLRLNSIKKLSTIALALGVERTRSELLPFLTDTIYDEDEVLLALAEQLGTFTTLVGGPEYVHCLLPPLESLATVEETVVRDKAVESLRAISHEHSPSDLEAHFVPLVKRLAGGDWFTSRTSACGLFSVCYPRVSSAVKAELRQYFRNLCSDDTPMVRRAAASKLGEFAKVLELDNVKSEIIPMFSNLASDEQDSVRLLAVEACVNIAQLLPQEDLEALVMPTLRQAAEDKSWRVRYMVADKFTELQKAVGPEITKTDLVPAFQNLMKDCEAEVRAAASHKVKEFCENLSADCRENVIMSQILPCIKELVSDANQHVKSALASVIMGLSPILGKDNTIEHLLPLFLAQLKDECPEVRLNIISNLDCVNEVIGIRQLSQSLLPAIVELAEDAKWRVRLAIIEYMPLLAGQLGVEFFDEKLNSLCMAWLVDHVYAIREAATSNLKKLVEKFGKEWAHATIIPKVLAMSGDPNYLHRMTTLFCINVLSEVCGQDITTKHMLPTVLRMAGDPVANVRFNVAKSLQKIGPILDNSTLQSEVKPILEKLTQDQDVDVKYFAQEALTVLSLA
As to conditions: both partners purified.

The values that follow come from publication PMC4090178, “Structural and Biochemical Characterization of Human PR70 in Isolation and in Complex with the Scaffolding Subunit of Protein Phosphatase 2A” (PLoS ONE, 2014).

As for “A β (HEAT1–15) (from UniProt P30154 1-601) (natural protein)”, in the experiment with PR70 (25–575), the Kd (in general, the free concentration of one partner at which half of the binding sites on the other are occupied at equilibrium, for simple one-to-one binding) is 702 nM; the dH is -21.5 kcal/mol; the stoichiometry N (as a rule, a count of units in the complex or per binding partner) worked out at 1.01. In the experiment with PR70 (105–575), the Kd was 411 nM, the dH was -17.1 kcal/mol and the stoichiometry N is 0.86. As to B1, the Kd in the experiment with A α (HEAT1–15) was over 100000 nM.

In the experiment with A α (HEAT1–15), B2 came in with a Kd of 45 ± 8 nM. On the same count and under the same terms, the same measure for B3: over 100000 nM; for B4: 2920 ± 300 nM. The molecule B5 gave a Kd with A α (HEAT1–15) of 112 ± 6 nM.

For B6, the Kd in the experiment with A α (HEAT1–15) is over 100000 nM.
